Measured values published in publication PMC10172135.

What was measured:
[1] = biological target: FRP-like protein (FRPL) from Pseudomonas borbori (Pseudomonas borbori); experiment: native MS; 4 µM (monomer) in 200 mM ammonium acetate pH 6.8, Q Exactive, positive ion mode
[2] = biological target: orange carotenoid protein OCP1 from Synechocystis sp. PCC 6803 (Synechocystis sp. PCC 6803)

| stoichiometry N [1] | acceleration of OCP1’s recovery from photoconversion (20 °C, equimolar ratio of OCP1 to FRPL), compared to OCP1 alone [2] [%] | Substance |
| --- | --- | --- |
| 2 |  | FRP-like protein (FRPL) from Pseudomonas borbori (natural protein) |
|  | 93 | FRPL from a delta-proteobacterium of the Desulfobacteraceae family (natural protein) |
